For assay [1], the target named is AAV9 capsid. As to the kind of experiment: AAVX affinity HPLC at room temperature (24 C), qPCR of flow-through. A general note: In qPCR the cycle at which signal appears reflects the starting amount.
The target of the next assay is PHP.eB capsid. Described as above.
Another assay has as its target AAV1 capsid. As to the kind of experiment: AAVX affinity HPLC, five consecutive small-scale preps on the same resin, qPCR of fractions.
The target in the next assay is Anc80 capsid. As to the kind of experiment: static binding assay on AAVX resin, qPCR of vector genomes.
Another assay deals with AAV4 capsid. Described as above.
For assay [2], the target named is AAV9 capsid. The assay is described as above.
Assay [3] addresses AAV2 capsid (AAV particles of serotype AAV2) (UniProt P03135). The description is as above.
Sequence of UniProt P03135 (P03135 whole entry): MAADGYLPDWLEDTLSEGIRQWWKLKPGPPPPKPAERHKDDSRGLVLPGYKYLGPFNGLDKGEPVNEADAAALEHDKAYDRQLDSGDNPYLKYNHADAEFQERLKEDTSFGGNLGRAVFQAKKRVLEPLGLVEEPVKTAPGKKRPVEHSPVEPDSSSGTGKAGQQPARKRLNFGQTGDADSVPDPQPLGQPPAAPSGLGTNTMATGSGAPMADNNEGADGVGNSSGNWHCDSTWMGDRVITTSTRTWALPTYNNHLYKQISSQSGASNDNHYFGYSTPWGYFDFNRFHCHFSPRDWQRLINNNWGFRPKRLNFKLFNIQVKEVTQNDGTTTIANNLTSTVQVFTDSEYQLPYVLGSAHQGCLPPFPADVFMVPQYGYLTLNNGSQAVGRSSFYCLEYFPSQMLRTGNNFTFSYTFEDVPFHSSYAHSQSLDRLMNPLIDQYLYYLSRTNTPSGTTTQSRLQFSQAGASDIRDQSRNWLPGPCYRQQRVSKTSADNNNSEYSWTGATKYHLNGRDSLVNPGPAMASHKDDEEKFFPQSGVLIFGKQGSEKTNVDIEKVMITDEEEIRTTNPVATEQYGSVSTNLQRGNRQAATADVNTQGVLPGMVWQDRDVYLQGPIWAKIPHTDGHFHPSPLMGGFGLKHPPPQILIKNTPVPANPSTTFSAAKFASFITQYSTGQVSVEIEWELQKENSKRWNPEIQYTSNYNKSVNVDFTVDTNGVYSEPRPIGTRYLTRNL
The next assay has as its target AAV7m8 capsid. The description is as above.
The target in another assay is AAV2_HSPG capsid. The assay is described as above.
Another assay has as its target rh10 capsid. The description is as above.
A further assay has as its target PHP.B capsid. Described as above.
A further assay deals with AAV5 capsid. The assay is described as above.
A further assay deals with rh32.33 capsid. Described as above.
The target in a further assay is AAV6.2 capsid. Described as above.
The target of a further assay is AAV8 capsid. The description is as above.
Another assay concerns the target AAV7 capsid. Described as above.

Consider “POROS CaptureSelect AAVX resin ligand (camelid heavy-chain-only single-domain antibody fragment linked to poly[styrene divinylbenzene] beads) (VHH)”, for which the fraction of input AAV in the flow-through with AAV9 capsid [1] and with PHP.eB capsid was under 5% in each case. In the assay with AAV1 capsid, this substance showed a percent of input virus in flow-through of under 2%. Also, the recovery (percent vector genomes of input) is 80% with Anc80 capsid; over 95% with AAV4 capsid; over 95% with AAV9 capsid [2]; over 95% in assay [3]; over 95% with AAV7m8 capsid; over 95% with AAV2_HSPG capsid. The recovery (percent vector genomes of input) in the assay with rh10 capsid, with PHP.B capsid, in the assay with AAV5 capsid, in the assay with rh32.33 capsid, in the assay with AAV6.2 capsid and with AAV8 capsid was over 95% in each case. This substance also yielded a recovery (percent vector genomes of input) in the assay with AAV7 capsid of over 95%.

(Values after patent US20230303983A1.)
